Reference: US20220133733A1 (Bicycle, published 2022)
Read-outs that look alike come from different tables or passages of the source. Starred links: 1 amine or outer side, 2 acyl side, 3 side chain; linkers in the order of their positions; H or OH if unused. Positions of bridges follow the written chain, without caps; N, C: chain ends. No end group written: not given here. TBMB = c1c(C[*:1])cc(C[*:3])cc1C[*:2]

Assays:
human CD38 [1] = target: T1, human CD38 (human, UniProt P28907 43-300, limits assumed); assay: fluorescence polarisation competition, tracer …-Sar6-K(Fl)
T1 construct: also called hCD38
T1 sequence (looked up): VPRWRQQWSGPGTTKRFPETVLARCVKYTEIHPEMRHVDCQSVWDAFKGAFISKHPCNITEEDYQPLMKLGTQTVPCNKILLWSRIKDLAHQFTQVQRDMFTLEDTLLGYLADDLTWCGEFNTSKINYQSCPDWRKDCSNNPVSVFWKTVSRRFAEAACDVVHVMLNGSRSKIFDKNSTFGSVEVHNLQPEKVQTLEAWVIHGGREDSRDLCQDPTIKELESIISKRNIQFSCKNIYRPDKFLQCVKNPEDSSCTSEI

human CD38 [2] = target: T1, human CD38; assay: as above; remark: listed apart in the source

B1: BT66BDC-1 (peptide)
peptide: XXXXXXXXXXXACVPCADFPIWYC
modifications: DM1 toxin conjugated to the peptide through a linker shown only in the drawing of formula (I); N-terminal beta-alanine followed by ten sarcosines (Sar10); Ci, Cii and Ciii bound to TBMB scaffold
notes: The attachment site and linker stand only in drawings; also called BDC of formula (I)
Human CD38 [1]
  Ki: 144 nM

## ACFTLDGECFLLGENCA (linker 2-9-16 via TBMB (inferred)) [66-08-52-N001]
Human CD38 [2]
  Ki: 562 nM
